The assay addresses MERS-CoV N protein (MERS-CoV), K9N4V7.

The source of these data is patent publication US20230181681A1, “PEPTIDE FOR SUPPRESSING CORONAVIRUS AND USE THEREOF” (priority 2020, published 2023).

The molecule TGCGTNCMGKLKCNRC (modifications not checked) [Spike CD-F] yielded a percent inhibition of the interaction between Spike CD-Full and N protein of 40%.
